Patent publication US20120258041A1 (published 2012)

B1: mouse monoclonal antibody 5D2 (antibody, V domains shown)
VH: EVQLQQSGPELVKPGASVKISCKASGYTFTDNYYMNWVKQSHGKSLEWIGHIYPNNGVTSYNQKFRGKATLTVDKSSNSAYMELRSLTSEDSALYYCARNKLLSLYWYFDVWGTGTSVTVSS
VL: DIQMTQSSSSFSVFLGDRITITCRASVDIYNRLAWFQQKPGNAPRLLISGATSLATGVPSRFSGSGSGKDYTLSITSLQTEDVTIYYCQQYWSTPWTFGGGTKLEIKR

Legend:
human iC3b (human) = human iC3b (human) (UniProt P01024); assay: sandwich ELISA: chicken anti-C3 capture antibody, captured antigen, A209 as detecting antibody, goat anti-mouse-HRP, ABTS
murine iC3b = target: T1, murine iC3b (mouse, UniProt P01027 25-1663, limits assumed); assay: sandwich ELISA: rat mAb 2/11 (anti-mouse C3b/iC3b/C3c) capture, mouse serum 1:25 as antigen source, biotinylated antibody, streptavidin-HRP, ABTS, read at 405 nm
T1 construct: Native material from a mixture of two mouse sera; the capture antibody also takes C3b and C3c; also called mouse iC3b
T1 sequence (P01027 25-1663 limits assumed): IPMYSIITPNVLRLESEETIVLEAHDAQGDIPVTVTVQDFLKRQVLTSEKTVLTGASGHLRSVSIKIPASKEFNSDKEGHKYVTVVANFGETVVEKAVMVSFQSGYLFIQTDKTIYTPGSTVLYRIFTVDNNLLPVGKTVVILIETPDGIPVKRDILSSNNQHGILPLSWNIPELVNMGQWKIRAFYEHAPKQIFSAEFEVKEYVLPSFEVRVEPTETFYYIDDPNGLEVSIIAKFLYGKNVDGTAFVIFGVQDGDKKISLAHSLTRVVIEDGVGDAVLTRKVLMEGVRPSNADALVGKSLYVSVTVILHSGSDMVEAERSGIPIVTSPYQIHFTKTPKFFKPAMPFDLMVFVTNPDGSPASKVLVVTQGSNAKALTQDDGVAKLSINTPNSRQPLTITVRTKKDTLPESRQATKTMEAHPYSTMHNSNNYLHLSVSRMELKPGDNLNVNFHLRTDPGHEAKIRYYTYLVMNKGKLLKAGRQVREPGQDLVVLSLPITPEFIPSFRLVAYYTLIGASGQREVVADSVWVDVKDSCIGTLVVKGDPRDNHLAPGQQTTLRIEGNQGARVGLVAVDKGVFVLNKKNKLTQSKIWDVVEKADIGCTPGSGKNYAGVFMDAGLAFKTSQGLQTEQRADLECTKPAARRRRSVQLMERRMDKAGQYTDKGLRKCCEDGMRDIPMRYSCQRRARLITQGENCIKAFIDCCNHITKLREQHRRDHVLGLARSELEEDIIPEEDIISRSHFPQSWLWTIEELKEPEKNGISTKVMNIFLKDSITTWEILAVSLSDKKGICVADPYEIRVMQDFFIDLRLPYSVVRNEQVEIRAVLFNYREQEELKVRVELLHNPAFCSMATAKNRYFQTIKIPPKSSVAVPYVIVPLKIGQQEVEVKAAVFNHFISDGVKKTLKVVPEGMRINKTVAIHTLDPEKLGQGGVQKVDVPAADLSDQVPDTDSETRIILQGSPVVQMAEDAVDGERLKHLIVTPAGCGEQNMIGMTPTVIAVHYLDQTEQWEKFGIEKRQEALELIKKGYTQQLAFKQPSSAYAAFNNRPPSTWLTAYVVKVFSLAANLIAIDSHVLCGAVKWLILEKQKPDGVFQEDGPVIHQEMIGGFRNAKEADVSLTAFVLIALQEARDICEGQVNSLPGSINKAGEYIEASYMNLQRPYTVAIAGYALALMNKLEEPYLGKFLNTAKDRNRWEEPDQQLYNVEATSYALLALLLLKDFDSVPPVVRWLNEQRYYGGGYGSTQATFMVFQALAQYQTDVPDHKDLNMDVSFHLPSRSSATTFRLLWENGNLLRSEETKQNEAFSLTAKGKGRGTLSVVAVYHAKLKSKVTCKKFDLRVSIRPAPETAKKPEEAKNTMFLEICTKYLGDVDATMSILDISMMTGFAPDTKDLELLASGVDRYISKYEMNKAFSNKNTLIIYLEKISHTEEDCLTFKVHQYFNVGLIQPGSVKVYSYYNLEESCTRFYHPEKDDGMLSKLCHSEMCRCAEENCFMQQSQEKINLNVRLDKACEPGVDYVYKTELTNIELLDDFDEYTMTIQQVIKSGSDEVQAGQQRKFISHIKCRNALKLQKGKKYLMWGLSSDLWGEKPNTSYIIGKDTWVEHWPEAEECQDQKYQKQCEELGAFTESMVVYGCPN

Chain of human iC3b (human) (P01024 23-667 limits assumed, chain 1 of 3): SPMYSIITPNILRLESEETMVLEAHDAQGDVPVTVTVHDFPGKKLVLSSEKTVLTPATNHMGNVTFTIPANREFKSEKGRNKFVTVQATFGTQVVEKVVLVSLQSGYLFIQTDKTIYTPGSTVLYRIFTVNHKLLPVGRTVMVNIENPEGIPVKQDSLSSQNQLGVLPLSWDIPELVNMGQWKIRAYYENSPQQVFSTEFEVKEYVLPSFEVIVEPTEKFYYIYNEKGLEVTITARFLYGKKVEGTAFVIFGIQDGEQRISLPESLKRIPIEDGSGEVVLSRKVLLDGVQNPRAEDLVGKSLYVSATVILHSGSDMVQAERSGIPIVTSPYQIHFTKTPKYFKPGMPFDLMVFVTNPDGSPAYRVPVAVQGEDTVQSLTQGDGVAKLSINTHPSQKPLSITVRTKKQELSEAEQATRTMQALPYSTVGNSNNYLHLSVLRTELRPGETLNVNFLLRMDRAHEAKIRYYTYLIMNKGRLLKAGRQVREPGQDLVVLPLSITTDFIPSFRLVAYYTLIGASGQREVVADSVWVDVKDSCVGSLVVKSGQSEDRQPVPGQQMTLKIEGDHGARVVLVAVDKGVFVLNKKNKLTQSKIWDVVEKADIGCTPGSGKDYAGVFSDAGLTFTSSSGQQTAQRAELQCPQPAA
Chain of human iC3b (human) (P01024 749-1303 limits assumed, chain 2 of 3): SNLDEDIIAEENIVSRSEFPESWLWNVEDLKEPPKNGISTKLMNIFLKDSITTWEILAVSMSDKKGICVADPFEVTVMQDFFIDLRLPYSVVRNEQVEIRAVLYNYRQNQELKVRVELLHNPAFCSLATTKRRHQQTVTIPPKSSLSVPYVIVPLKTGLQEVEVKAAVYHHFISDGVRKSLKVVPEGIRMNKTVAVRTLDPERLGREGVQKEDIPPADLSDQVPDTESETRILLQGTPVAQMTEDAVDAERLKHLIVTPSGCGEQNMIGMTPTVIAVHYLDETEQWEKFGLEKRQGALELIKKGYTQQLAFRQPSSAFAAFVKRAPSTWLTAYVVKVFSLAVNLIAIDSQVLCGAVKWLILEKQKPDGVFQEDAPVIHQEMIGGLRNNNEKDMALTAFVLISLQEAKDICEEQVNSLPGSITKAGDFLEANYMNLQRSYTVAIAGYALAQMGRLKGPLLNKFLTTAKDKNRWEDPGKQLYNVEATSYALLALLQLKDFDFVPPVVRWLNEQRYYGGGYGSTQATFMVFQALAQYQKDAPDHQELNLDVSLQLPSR
Chain of human iC3b (human) (P01024 1321-1663 limits assumed, chain 3 of 3): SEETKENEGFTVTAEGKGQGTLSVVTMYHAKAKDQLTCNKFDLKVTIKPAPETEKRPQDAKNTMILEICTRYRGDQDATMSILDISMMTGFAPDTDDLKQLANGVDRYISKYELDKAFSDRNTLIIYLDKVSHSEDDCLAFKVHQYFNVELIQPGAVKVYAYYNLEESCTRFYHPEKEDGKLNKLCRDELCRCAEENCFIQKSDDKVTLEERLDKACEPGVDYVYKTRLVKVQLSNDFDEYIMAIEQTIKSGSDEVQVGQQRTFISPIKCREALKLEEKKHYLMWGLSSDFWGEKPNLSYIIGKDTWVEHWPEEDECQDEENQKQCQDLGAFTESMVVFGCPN

Molecule	EC50 (read off the curve) (human iC3b (human))	EC50 (read off the curve) (murine iC3b)
A209 antibody (Quidel), mouse anti-human iC3b monoclonal antibody	0.03 µg/mL	
B1		~20 nM
